# Results as given in patent publication US20150148520A1.
# Values joined by “and” are separate entries in the source; they are usually repeats but may differ in a detail not shown here. Identical values can stand only once.
# Key:
# [1] = target: insulin receptor, A subtype (UniProt P06213); experiment: cell-based or functional assay
# [2] = target: insulin receptor, B subtype (UniProt P06213); experiment: cell-based or functional assay
# [3] = target: human IGF-1 receptor (human) (UniProt P08069); experiment: cell-based or functional assay
# [4] = target: human insulin receptor (human) (UniProt P06213); experiment: SPA competition, [125I]-insulin, IR membranes
# [5] = target: human insulin receptor (human) (UniProt P06213); experiment: cell-based or functional assay
Substance,"% (in vitro activity, IR-A) [1] [%]","% (in vitro activity, IR-B) [2] [%]",% Insulin Activity [1] [%],% Insulin Activity [2] [%],% Insulin Activity [3] [%],also measured
"MIU-79 di-10K-SC: B1, A14-10K B^1(H5,10Y16L17R29)30-C^1des9-12-A^1(H8,K14,N18,21) (from UniProt P05019 49-110) (ligand)",1.7,0.2,,,,
"MIU-57: B^1(H5,Y16,L17)25-C^1-A^1(N18,21) with a 20 kDa PEG on the N-terminus of the B chain (from UniProt P05019 49-110) (ligand)",4.5,1.1,3.1,1.1,1.2,"% (in vitro activity, IGF-1 R) [3]: 1.2%"
"MIU-58: dimer of two B^1(H5,Y16,L17)25-C^1-A^1(N18,21) linked head to head via a 20 kDa PEG chain (from UniProt P05019 49-110) (ligand)",,,19.7,5.8,2.6,
"MIU-69: B^1(H5,Y16,L17)25-C^1(K8)-A^1(K14,N18,21), two 10K PEG chains at the N-terminus and A14 (from UniProt P05019 49-110) (ligand)",,,1,0.5,< 0.1,
"di-10K-TC: B1, A14-10K B^1(H5,10Y16L17R29)29: A^1(H8K14N18,21) (ligand)",6.4,2.1,,,,
"MIU-68: B^1(H5,Y16,L17,K22)25-C^1(K8)-A^1(N18,21), two 10K PEG chains at the N-terminus and B22 (from UniProt P05019 49-110) (ligand)",,,0.4,0.1,< 0.1,
IGF-1 A: B (H5D10Y16L17) DPI (ligand),,,,,,% insulin (in test) [4]: 479%; IC50 [4]: 0.16 nM
"MIU-35: B^1(H5,H10,Y16,L17)25-C^1-A^1(H8,N18,N21) (from UniProt P05019 49-110) (ligand)",61.4,17.4,61.4,17.4,3.2,"% (in vitro activity, IGF-1 R) [3]: 3.2%"
"Thr,A8: B^1(H5,10Y16L17)25-C^1-A^1(T8N18,21) (from UniProt P05019 49-110) (ligand)",20.4,8.4,,,,"% (in vitro activity, IGF-1 R) [3]: 3.7%"
"DP3(SC): B^1(H5,10Y16L17K29)29-A^1(H8,N18,21) (from UniProt P05019 49-110) (ligand)",0.03,,,,,
"MIU-78 mono-20K-TC: B1-20K B^1(H5,10Y16L17K29)29: A^1(H8N18,21) (ligand)",8.2,3.2,,,,
"MIU-56: C8-PEG20K B^1(H5,Y16,L17)25-PEG8-K-PEG4-A^1(N18,N21) (from UniProt P05019 49-110) (ligand)",,,14.8,,,
"DP3(TC): B^1(H5,10Y16L17K29)29: A^1(H8,N18,21) (ligand)",160,33.1,,,,
"Ala,B5: B^1(A5H10Y16L17)25-C^1-A^1(H8N18N21) (from UniProt P05019 49-110) (ligand)",,5.7,,,,"% (in vitro activity, IGF-1 R) [3]: 2.5%"
IGF-1 A: B (H5D10Y16L17) (S═O) DPI (ligand),,,,,,% insulin (in test) [4]: 316%; IC50 [4]: 0.25 nM
"MIU-43 DP8Mut3: B^1(H5,10Y16L17R29)30-C^1des9-12-A^1(H8,N18,21) (from UniProt P05019 49-110) (ligand)",97.5,16.7,,,,"% (in vitro activity, column IGF-1R) [3]: 14.2%"
"MIU-67: B^1(H5,Y16,L17)25-C^1(K8)-A^1(N18,21), two 10K PEG chains at the N-terminus and C8 (from UniProt P05019 49-110) (ligand)",,,0.2,0.1,< 0.1,
IGF-1 A (H8 A9 N21): B (H5D10Y16L17 A22) DPI A-COOH (ligand),,,,,,% Insulin [5]: 360% and 614%
"DP8Mut3KA14: B^1(H5,10Y16L17R29)30-C^1des9-12-A^1(H8,K14,N18,21) (from UniProt P05019 49-110) (ligand)",132,12.6,,,,
